Measurements from the nanobody polyreactivity screen of Harvey et al. (2022).

Assay: yeast display, Sf9 membrane polyspecificity reagent, FACS + sequencing; frameworks hold sequencing errors
In short: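 Using colony PCR, genes from sorted yeast display clones were amplified, then sequenced on MiSeq at 2 × 250 and filtered by CDR length. The clones had been stained with 10% biotinylated, detergent-solubilized Sf9 membrane reagent for 1 hour at 4 °C and sorted by FACS into low and high (top ~1%) gates on anti-HA and streptavidin fluorescence. Polyreactivity labels come from the gate of origin.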

Sequence | polyreactivity (PSR sort gate)
QVQLVESGGGLVQAGCSLRLSCAASGNIFYRYAKGRYRPAPGKERELVAGITWSGGSTYYADSVKGRFTISRDNAKNTVYLQMTSLKPEDTAVYYCGQANYYWGQGTQVTVSS | low polyreactivity
QVQLVESGGGLVQAGCSLRLSCAASGRIFDYYAMGWNRQAPGKERELVAAISYSGGSTHYADSVKGRFTISRDNAKNSVYLQMISLKPEDTAVYYCAGWAWSGVEYDYWGQGSQVTVSS | low polyreactivity
QVQLVESGGGLVQAGCSLRLSCAASGRISKRYTMGWYRQAPGKERELVAAINSSTSTSYADSVKGRFTISRDNAKNTVYLKMNSRKPEDTAVYYCNARYNYSYDYNYWGQGTQVTVSS | low polyreactivity
QVQLVESGGGLVQAGCSLRLSCAASGRTFDSYTMGWYRQAPGKERELVAAIRSSGGRTYADSVKGRFTISRDNAKNTVYLQMNSLKPEDTAVYYCDADRRGSHYYRYKYGYWGQGTQVTVSS | high polyreactivity
QVQLVESGGGLVQAGCSLRLSCAASGRTFRYYAMGWYRQAPGKERELVAAISGRGGSTYYADSVKGRFTISRDNAKNTVYFQMNSLKPEDTAVYYCADSFYSIRYDYWGQGTQVTVSS | high polyreactivity
QVQLVESGGGLVQAGCSLRLSCAASGRTFYYYAMGWYRQAPGKERELVAAISKSGGSTYYADSVKGRFTISRDNAKNTVYLQMNSLKPEDTAVYYCAALTTHAPHSYNYWGQGTQVTVSS | low polyreactivity
QVQLVESGGGLVQAGCSLRLSCAASGSIFFSYAMGWYRQAPGKEREFVAAINSDDASTYADSVKGRFTISRDNAKNTVYLQKNSLNPEDTAVYYCAASFLWSWYDYWGQGTHVTVSS | low polyreactivity
QVQLVESGGGLVQAGCSLRLSCAASGSIFGFYAMGWYRQAPGKERELVATIRSSGGNTYYADSVKGRFTISRDNAKNTVYLEMNSLKPEDTGVFYCAASFLIRAYVDRNDYWGLGTQVTVSS | low polyreactivity
QVQLVESGGGLVQAGCSLRLSCAASGSIFSTYAMGWYRQAPGKERELVAAITSDGTYADSVKGRFTISRDNARNTVYLQMNSLKPEDTAVYYWAAYYPYTRHGDYWGQGTQVTVSS | low polyreactivity
QVQLVESGGGLVQAGCSLRLSCAASGSIFTSYAMGWYRQAPGKERELVAAINRSSGTTYYAHSVKGRFTISRDTAKNTVYLQMNSLKREDTAVYYCAKEYGIYTDTPYYYWGQGTQVTVSS | low polyreactivity
QVQLVESGGGLVQAGCSLRLSCAASGSIFYFYGMGWYRQAPGKERELVASITYSGTSTYYADSVKGRFTISRDNAMITVYLQMNSLKPEDTAVYYCAASFYTVNSWYDSWGQGTQVTVSS | low polyreactivity
QVQLVESGGGLVQAGCSLRLSCAASGSIIIGNAMGWYRKSPGKERELVAVINGSDGTTYYADSVKGRFTNSRDNAKNTVYLQMNSLKPEDTAVYYCNADFIDPSVYDYNYWGQGTQVTVSS | low polyreactivity
QVQLVESGGGLVQAGCSLRLSCAASGSISSFYAMGWYRQAPGKERELVAGITSGGSTNYADSVKGRFTISRDNAKNTVYLQMNSLKPEDTAVYYCAAVYKGAGTHFDVFVKEFDYWGLGTQVTVSS | low polyreactivity
QVQLVESGGGLVQAGCSLRLSCAASGSTFKRYAMGWYRQAPGKERELVASISSGGSTNYADSVKGRFTISRDNAKNTVYLQMNSLKPEDTAVYYCATRGHYRQTINYWGQGTQVSVSS | high polyreactivity
QVQLVESGGGLVQAGCSLRLSCAASGSTFSPNAMGWYRQAPGKERELVASIRIGGRTNYADSVKGRFTISRDNAKNTVYLQMNSLKPEDTAVYYCARRHYYSRFTVSKLSRYDYWGQGTQVTVSS | high polyreactivity
QVQLVESGGGLVQAGCSLRLSCAASGSTLYTYAMGWYRQAPGKERELVATISWSGSSTYYADSVKGRFTISRDNAKNTVYLQMNSLKPEDTAVYYCAAQYHYWYRLDYWGQGTQVTVSS | high polyreactivity

Sequence | polyreactivity (PSR sort gate)
QVQLVESGGGLVQAGCSLRLSCAASGSTVYYKAMGWYREAPGKERELVAAITSGGRTKYADSVKGRFTISRDNAKNTVYLQMNSLKPEDTAVYYCNTYNRRSGTLPKPYDYWGQGTQVTVSS | high polyreactivity
QVQLVESGGGLVQAGCSLRLSCAASGYIFYPYAMGWYRQAPGKERELVAAISGSGSGTYYADSVKGRFTISRDNAKNTVYLQMNSLKPEDTADYYCAKYVYDNVWMDYWGQGTQVTVSS | high polyreactivity
QVQLVESGGGLVQAGCSLRLSCASSGLTFSFYAMGWYRQAPGKERELVAAISKGGGSTSYADSVKGRFTISRDNAKNTVYLQMNSLKPEDTAVYYCAARYYYSRSRLYYYWGQVTQVTVSS | high polyreactivity
QVQLVESGGGLVQAGCSLRLSCSASGLTFYANAMGWYRQAPGKERELVAAISKSGGNTYYAYSVKGRFTISRDNAKNTVYLQMNSLKPEDTAVYYCAVGYPRGYVDVDSWGQGTQVTVSS | high polyreactivity
QVQLVESGGGLVQAGDSLRLSCAASGFIFYYYTMGWYRQAPGKEREFVAAITYSGGRTYYADSVKGRFTISRDNAKNTVYLQMNSLKPQDTAVYYCADVPRYGPSSRMDYWGQGTQVTVSS | high polyreactivity
QVQLVESGGGLVQAGGCLRISCAASGSTFPNYAMGWYREAPGKERELVARISYNVGRTYYADSVKGRFTISRDNAKNTVYLQMNSLKPEDTAVYYCAAGVGWRYRVRWYYSLGDYWGQGTQVTVSS | high polyreactivity
QVQLVESGGGLVQAGGCLRLSCAASGSIFDHYVMGWYREAPGKERELVAAISSGDRPNYADSVKGRFTISRDNAKNPVYLQMNSLKPEETAVYYCAAVVHVSPYSYDYWGQGTQVTVSA | low polyreactivity
QVQLVESGGGLVQAGGCLRLSCASSGRTFHLYAMGWYRQAPGKERELVAAITWSSGRTYYSDSVKGRFTISRDNAKNTVYVQMKSLKPEDTAVFYCAADVWGGLLPGYDYWGQGTQVTVSS | high polyreactivity
QVQLVESGGGLVQAGGCLRLSCDASGFTFAFYAMGWYRQAPGKEIELVAAISRRGGSTTYADSVKGRFTISRDNAKNTVYLQMHSLKPEDTAVYYCNAVSTRNPGPDSYYWGQGTQVTVSS | high polyreactivity
QVQLVESGGGLVQAGGGLRLSCAASGFIFSLYAMGWYRQAPGKERELVAAISKRGGSTNYADSLKGRFTISRDNAKNTVYLQRNSLKPDVTAVYYCAATRNYYGRYDYWGQGTQVTVSS | high polyreactivity
QVQLVESGGGLVQAGGGLRLSCAASGFTFYLYVMGWYRQAPGKERELVARISRSGGTTYYADSVKGRFTISRDNAKNTVYLQMNSLKPEDTAVYYCAARRYGVPPTYDYCGQGTQVTVSS | high polyreactivity
QVQLVESGGGLVQAGGIIRLSCAASGLIFSRYAMGWYRQAPGKETELVAAITQSGTSTYYADSVKGRFTISRDNANNTVYLQMTILKPEDTAVYYCNAYPQYRYDYWGQGTQVTVSS | low polyreactivity
QVQLVESGGGLVQAGGILRLICAASGRIFGPYAMGWYRQAPGKERELVADITGGGTYYADSVKGRFTISRDNAKNTVYLQMFSLKPEDTSVYYCAADYSSYTSFRYDYWGQGTHVTVSS | low polyreactivity
QVQLVESGGGLVQAGGILRLICAASGSIFGKYTMGWYRHAPGKERELVAGITYRAGSTYYADSVKGRFTISRDNAKNTVYLQMNSLKPEDTAVYYCAARFYFRWYYYGSYANYWGQGTQVTVSS | high polyreactivity
QVQLVESGGGLVQAGGILRLICAAYGRILAYNSMGWYRQAPGKQRELVAGISWSGGSTYYADSVKGRFTISRDNAKNTVYLQMNSLKPEDTAVYYCAKTPYYRYAKQRYTSSHDYWGQGTQVTVSS | high polyreactivity
QVQLVESGGGLVQAGGILRLICADSGSTFAQYAMGWYRPAPGKERELVAAISRLGASTYYAYSVKGRFTISRDIAKNTVYLQMNSLKPEDTVVYYCNAVRGEKMGYWGQGTQVTVSS | high polyreactivity
